Measurements: publication PMC5437253

Tests used:
Experiment in all cases: SPR; Biacore 3000; antibodies immobilised on a CM5 chip by amine coupling at ~3000 RU; huFcRn flowed at 5 μl/min for 50 min, 19.5 nM to 10 μM, in PBS pH 5.8 with 5 mM EDTA and 0.05% Tween 20; steady-state fit
[1] = target: N384AzK-CR110 (human)
[2] = target: K288AzK-CR110 (human)
[3] = target: wild-type antibody (human)
[4] = target: K288AzK (human)
[5] = target: N384AzK-mPEG (human)
[6] = target: S254AzK-CR110 (human)
[7] = target: Q311AzK (human)
[8] = target: M252AzK (human)
[9] = target: L309AzK-CR110 (human)
[10] = target: M252AzK-CR110 (human)
[11] = target: L309AzK (human)
[12] = target: N384AzK (human)
[13] = target: S254AzK (human)
[14] = target: N434AzK (human)
[15] = target: N286AzK-mPEG (human)
[16] = target: M252AzK-mPEG (human)
[17] = target: Q311AzK-CR110 (human)
[18] = target: K248AzK (human)
[19] = target: K248AzK-mPEG (human)
[20] = target: Q311AzK-mPEG (human)
[21] = target: L309AzK-mPEG (human)

Kd [1]: 702 nM
Kd [2]: 558 nM
Kd [3]: 538 nM
Kd [4]: 418 nM
Kd [5]: 756 nM
Kd [6]: 2870 nM
Kd [7]: 323 nM
Kd [8]: 249 nM
Kd [9]: 2040 nM
Kd [10]: 2060 nM
Kd [11]: 437 nM
Kd [12]: 565 nM
Kd [13]: 465 nM
Kd [14]: 734 nM
Kd [15]: 2830 nM
Kd [16]: 3580 nM
Kd [17]: 2050 nM
Kd [18]: 378 nM
Kd [19]: 907 nM
Kd [20]: 3870 nM
Kd [21]: 3270 nM
Substance: Recombinant human FcRn (from UniProt P55899 24-297; P61769 21-119) (receptor)
